Consider 3 molecules from US6855515B1, “Autoantigenic fragments, methods and assays” (Merck & Co., Inc., priority 1998, dated 2005).

Common to all, as to format: biochemical
Experiment [1] deals with caspase-8 (Homo sapiens, UniProt Q14790). The experiment can be described thus: Cleavage of substrates by purified caspase-8. To be noted: 50 nM purified caspase-8; HeLa lysates treated with iodoacetamide, or radiolabeled IvTT substrate. As to the method:
To confirm that these substrates were not cleaved by group III caspases, the substrates were incubated with 50 nM purified caspase-8. Cleavage assays were performed in HeLa cell lysates in which endogenous caspases had first been irreversibly inactivated by 1 mM iodoacetamide (4° C. for 15 min), prior to addition of 5 mM DTT to facilitate exogenous caspase-8 activity. No cleavage of topoisomerase-1, Mi-2, U1-70 kDa, PARP, Ku-70, RNA polymerase II large subunit, SRP-72, NuMA or Ki-67 occurred. Caspase-8 was indeed active in these lysates, as evidenced by robust caspase-3 cleavage products of PARP and U1-70 kDa seen when the IAA ‘poisoning’ step was omitted. Radiolabeled PMS1 and PMS2 (generated by IvTT) were also not cleaved by purified caspase-8.

The target of experiment [2] is T1, granzyme B (Homo sapiens, UniProt P10144).
T1 construct: Some of these preparations were used for the further purification of granzyme B (Tschopp, 1994); endogenous in cells; host or cells: YT cells (human NK cell line), cytoplasmic granules
T1 sequence (P10144 21-247): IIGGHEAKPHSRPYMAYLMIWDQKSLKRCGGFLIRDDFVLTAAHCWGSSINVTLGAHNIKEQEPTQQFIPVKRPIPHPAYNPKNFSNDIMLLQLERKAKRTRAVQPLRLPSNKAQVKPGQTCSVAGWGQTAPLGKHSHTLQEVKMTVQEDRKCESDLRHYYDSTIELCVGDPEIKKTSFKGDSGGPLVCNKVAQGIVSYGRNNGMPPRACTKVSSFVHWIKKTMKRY
The experiment can be described thus: Susceptibility of autoantigens to cleavage by purified granzyme B (HeLa lysate immunoblot or immunoprecipitates). To be noted: in vitro. As to the method:
To determine whether susceptibility to direct cleavage by granzyme B was an isolated feature of PARP, NuMA and DNA-PKcs shown above, or whether it was a more general feature of autoantigens, a variety of well-defined autoantigens selected from across the spectrum of systemic autoimmune diseases were tested for susceptibility to cleavage by purified granzyume B. The efficiency of cleavage of the substrates by purified granzyme B was also noted (Table 3). Initially, a series of autoantibodies of well-defined specificity were used to immunoblot lysates of HeLa cells that had been incubated in vitro with or without granzyme B. Lysates were pre-treated with iodoacetamide (IAA) to prevent interference by endogenous caspase activity.
To perform these studies, HeLa cells were radiolabeled with [^35S] methionine/cysteine, and proteins were immunoprecipitated using human autoantibodies. Protein A-agarose beads containing washed precipitated proteins were resuspended in buffer supporting the activity of granzyme B, and incubated in the absence or presence of added purified granzyme B. Reaction products were visualized using SDS-PAGE and fluorography. To confirm the validity of this approach, several different autoantigens known to be cleaved by granzyme B, as well as several autoantigens and non-autoantigens that are not cleaved by granzyme B, were tested. Using autoantibodies that both immunoblot and immunprecipitate, the cleavage profiles obtained using granzyme B to cleave molecules in lysates (followed by detection with immunoblotting), and after immunoprecipitation (from [^35S]methionine-labeled HeLa lysate) were compared. Identical results were obtained using these 2 methods for cleaved autoantigens (topoisomerase-1, Mi-2, RNA polymerase II large subunit, Ku-70, PARP, and NOR-90), uncleaved autoantigens (Ku-80, Ro 60k), and control substrates (β-tubulin, vinculin). […] Of note, all these additional autoantigens (with the exception of RNA polymerase I) are targeted in autoimmune myositis. However, two other tRNA synthetases (threonyl tRNA synthetase and glycyl tRNA synthetase) that are also autoantigens in autoimmune myositis, were not cleaved using this approach.

The target of experiment [3] is T1, granzyme B. The experiment can be described thus: In vitro cleavage of substrates by purified granzyme B, kcat/Km from densitometry. Particulars: ratio of kcat/Km. How it is done:
cDNAs for caspase-3, caspase-7, NuMA and PARP were used to drive the synthesis of [^35S]methionine-labeled proteins by coupled transcription/translation in rabbit reticulocyte lysates. For all purified substrates, cleavage reactions were performed in buffer consisting of 50 mM Hepes pH 7.4, 10% sucrose and 5 mM DTT in the presence of the granzyme B concentrations indicated in FIG. 1. After incubation at 37° C. for 15 min, reactions were terminated and samples were electrophoresed on 10% (DNA-PKcs, NuMA), 12% (PARP) or 15% (caspases 3 and 7) SDS-polyacrylamide gels. Radiolabeled proteins and their fragments were visualized by fluorography. Intact and cleaved DNA-PKcs were visualized by immunoblotting with monoclonal antibody 18-2 (Casciola-Rosen et al., 1995).
Catalytic constant (kcat/km) values were calculated essentially as described (Casciola-Rosen et al., 1996). Briefly, subsaturating substrate concentrations were used in each in vitro reaction, and product appearance was assumed to be a first order process. […] Several appropriate densitometry systems are available, e.g. PDI Discovery System, with Quantity One Software, Protein Databases, Inc., (Huntington Station, N.Y.). kcat/Km values were calculated by fitting the dose-response data to the first order rate equation: percent substrate cleavage=100*((1^-e-((kcat*[E]/Km)*time)). […]

Chain of caspase-8 (Q14790 217-374 limits assumed, species assumed): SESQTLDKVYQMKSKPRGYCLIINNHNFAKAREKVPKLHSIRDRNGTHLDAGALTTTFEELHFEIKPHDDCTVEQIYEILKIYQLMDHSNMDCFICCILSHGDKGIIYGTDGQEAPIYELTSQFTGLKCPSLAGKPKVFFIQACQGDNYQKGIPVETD
Chain of caspase-8 (Q14790 385-479 limits assumed, species assumed): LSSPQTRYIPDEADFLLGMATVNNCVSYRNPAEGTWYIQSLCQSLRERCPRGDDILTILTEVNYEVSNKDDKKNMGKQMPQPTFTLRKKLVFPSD

B1: PMS1: autoantigen (protein)
chain: MKQLPAATVRLLSSSQIITSVVSVVKELIENSLDAGATSVDVKLENYGFDKIEVRDNGEGIKAVDAPVMAMKYYTSKINSHEDLENLTTYGFRGEALGSICCIAEVLITTRTAADNFSTQYVLDGSGHILSQKPSHLGQGTTVTALRLFKNLPVRKQFYSTAKKCKDEIKKIQDLLMSFGILKPDLRIVFVHNKAVIWQKSRVSDHKMALMSVLGTAVMNNMESFQYHSEESQIYLSGFLPKCDADHSFTSLSTPERSFIFINSRPVHQKDILKLIRHHYNLKCLKESTRLYPVFFLKIDVPTADVDVNLTPDKSQVLLQNKESVLIALENLMTTCYGPLPSTNSYENNKTDVSAADIVLSKTAETDVLFNKVESSGKNYSNVDTSVIPFQNDMHNDESGKNTDDCLNHQISIGDFGYGHCSSEISNIDKNTKNAFQDISMSNVSWENSQTEYSKTCFISSVKHTQSENGNKDHIDESGENEEEAGLENSSEISADEWSRGNILKNSVGENIEPVKILVPEKSLPCKVSNNNYPIPEQMNLNEDSCNKKSNVIDNKSGKVTAYDLLSNRVIKKPMSASALFVQDHRPQFLIENPKTSLEDATLQIEELWKTLSEEEKLKYEEKATKDLERYNSQMKRAIEQESQMSLKDGRKKIKPTSAWNLAQKHKLKTSLSNQPKLDELLQSQIEKRRSQNIKMVQIPFSMKNLKINFKKQNKVDLEEKDEPCLIHNLRFPDAWLMTSKTEVMLLNPYRVEEALLFKRLLENHKLPAEPLEKPIMLTESLFNGSHYLDVLYKMTADDQRYSGSTYLSDPRLTANGFKIKLIPGVSITENYLEIEGMANCLPFYGVADLKEILNAILNRNAKEVYECRPRKVISYLEGEAVRLSRQLPMYLSKEDIQDIIYRMKHQFGNEIKECVHGRPFFHHLTYLPETT
As to B1, the “cleavage by caspase-8” value in experiment [1] is reported as “not cleaved”. For the same molecule, the “susceptibility to cleavage by granzyme B” value in experiment [2] is “efficiently cleaved”.

B2: Caspase-7: precursor of caspase-7 used as substrate for granzyme B (protein, UniProt P55210 2-303, looked up)
pro-form: ADDQGCIEEQGVEDSANEDSVDAKPDRSSFVPSLFSKKKKNVTMRSIKTTRDRVPTYQYNMNFEKLGKCIIINNKNFDKVTGMGVRNGTDKDAEALFKCFRSLGFDVIVYNDCSCAKMQDLLKKASEEDHTNAACFACILLSHGEENVIYGKDGVTPIKDLTAHFRGDRCKTLLEKPKLFFIQACRGTELDDGIQADSGPINDTDANPRYKIPVEADFLFAYSTVPGYYSWRSPGRGSWFVQALCSILEEHGKDLEIMQILTRVNDRVARHFESQSDDPHFHEKKQIPCVVSMLTKELYFSQ
modifications: pro-form
notes: precursor of caspase-7 used as substrate for granzyme B
For the molecule B2, in experiment [3], the “efficiency of granzyme B cleavage relative to caspase-3 precursor” value is “approximately 6 fold”.

B3: SRP-72: autoantigen (protein)
chain: ASGGSGGVSVPALWSEVNRYGQNGDFTRALKTVNKILQINKDDVTALHCKVVCLIQNGSFKEALNVINTHTKVLANNSLSFEKAYCEYRLNRIENALKTIESANQQTDKLKELYGQVLYRLERYDECLAVYRDLVRNSQDDYDEERKTNLSAVVAAQSNWEKVVPENLGLQEGTHELCYNTACALIGQGQLNQAMKILQKAEDLCRRSLSEDTDGTEEDPQAELAIIHGQMAYILQLQGRTEEALQLYNQIIKLKPTDVGLLAVIANNIITINKDQNVFDSKKKVKLTNAEGVEFKLSKKQLQAIEFNKALLAMYTNQAEQCRKISASLQSQSPEHLLPVLIQAAQLCREKQHTKAIELLQEFSDQHPENAAEIKLTMAQLKISQGNISKACLILRSIEELKHKPGMVSALVTMYSHEEDIDSAIEVFTQAIQWYQNHQPKSPAHLSLIREAANFKLKYGRKKEAISDLQQLWKQNPKDIHTLAQLISAYSLVDPEKAKALSKHLPSSDSMSLKVDVEALENSAGATYIRKKGGKVTGDSQPKEQGQGDLKKKKKKKKGKLPKNYDPKVTPDPERWLPMRERSYYRGRKKGKKKDQIGKGTQGATAGASSELDASKTVSSPPTSPRPGSAATVSASTSNIIPPRHQKPAGAPATKKKQQQKKKKGGKGGW
As for B3, in experiment [1], the “cleavage by caspase-8” value was “No cleavage”. Further, the “susceptibility to cleavage by granzyme B” value in experiment [2] is on record as “efficiently cleaved”.
